This is an account of results in patent US12527862B2, “Bactericidal/permeability increasing protein for use in a method of immunization, preferably as an adjuvant in a method of vaccination” (UNIVERSITÄT REGENSBURG, priority 2018, dated 2026).

The test system of one assay is BMDCs. The assay can be described thus: Cytokine protein secretion by BMDCs (Luminex). It is filed as cell-based, C57BL/6J mice. Here is the method:
All methods mentioned in this example were carried out as described in the preceding examples. Cells were stimulated with Zymosan depleted (Zymd, 5 μg/ml) from Invivogen (San Diego, CA, USA) or (R)-Pam3CSK4 (bLP, 10 nM) from EMC Microcollections GmbH (Tübingen, Germany). Protein secretion analysis was performed using the supernatants.
To quantify the interleukin and chemokine protein-level after stimulation with huBPI, Zymd, and (R)-Pam CSK4, a multiplex-system was used and determined by using the Luminex® technology (Austin, TX, USA). The cytokines were captured with anti-mouse capture-antibodies and detected by biotinylated antibodies specific for the respective protein (Table 3). Protein concentrations were calculated using a reconstituted standard curve of the analyzed proteins (SM039, #LMC4031, Lot #1438354; Thermo Fisher Scientific; Standard Mix 1a, #EPX010-20603-901, Lot #111709101, eBioscience).

Assay [1] concerns human peripheral blood mononuclear cells. Briefly: Stimulation of human peripheral blood mononuclear cells, TNFα ELISA. It counts as cell-based. The settings on record: BPI 500 nM, 18 h. How it is done: After informed consent, blood was drawn from healthy male volunteers using heparinized blood collection tubes and PBMCs were separated using leucosep tubes containing FICOLL® PAQUE PLUS (Oxford Immunotec, Abingdon, Great Britian) at 1,000×g for 10 min. The pellet was resuspended in AIM VR Medium (Thermo Fisher Scientific Inc., Waltham, MA, USA), counted, and cultivated in 96-well plates for 4 h (1×10^5/100 μl). Then cells were stimulated with (R)-Pam3CSK4 (bLP, 1 nM) or LTA S. pneumoniae Δlgt (a lipoprotein deficient strain, LTA SPΔlgt, 1 μM, n=4) in the presence or absence of BPI (500 nM). The supernatants were collected after 18 h for determination of cytokine concentration by ELISA according to the manufacturer's instructions (OPTEIA™ Human TNFα ELISA Set, BD Biosciences, Heidelberg, Germany).
For orientation: ELISA stands for enzyme-linked immunosorbent assay.

Assay [2] deals with murine dendritic cells (BMDC). Briefly: TNFα ELISA in murine dendritic cells (BMDC). It is filed as cell-based. The settings on record: LPS Ec 10 ng/ml or BPI 100 nM, 18 h, ELISA (FIG. 4A). Here is the method: Generation of BMDM was carried out similarly to BMDCs; MCSF was used instead of GMSCF for differentiation of BMDM. Cells were re-plated on day 1 of culture and harvested on day 5. On day 1, cells were seeded in new plates and harvested on day 5 for the experiments. Cells were stimulated with LPS Ec (10 ng/ml) or BPI (100 nM) for 18 h before supernatants were collected. TNFα levels were determined by ELISA (OPTEIA™ Murine TNFα ELISA Set, BD Bioscience, Heidelberg, Germany).

B1: bactericidal/permeability-increasing protein (protein)
chain: RIKIPDYSDSFKIKHLGKGHYSFYSMDIREFQLPSSQISMVPNVGLKFSISNANIKISGKWKAQKRFLKMSGNFDLSIEGMSISADLKLGSNPTSGKPTITCSSCSSHINSVHVHISKSKVGWLIQLFHKKIESALRNKMNSQVCEKVTNSVSSELQPYFQTLPVMTKIDSVAGINYGLVAPPATTAETLDVQMKGEFYSENHHNPPPFAPPVMEFPAAHDRMVYLGLSDYFFNTAGLVYQEAGVLKMTLRDDMIPKESKFRLTTKFFGTFLPEVAKKFPNMKIQIHVSASTPPHLSVQPTGLTFYPAVDVQAFAVLPNSSLASLFLIGMHTTGSMEVSAESNRLVGELKLDRLLLELKHSNIGPFPVELLQDIMNYIVPILVLPRVNEKLQKGFPLPTPARVQLYNVVLQPHQNFLLFGADVVYK
modifications: labeled with NT647 (Monolith NT Protein Labeling Kit RED-NHS) in the MST experiments
notes: recombinant human BPI, aa32-487 of huBPI with N-terminal HA signal peptide, expressed in HEK293T cells
Take B1: in the assay with BMDCs (BMDCs (FIG. 12)), the IL-4 level entry is “not induced”. The “IL-2, IL-12p40/p70, and IL-6 protein secretion” value with BMDCs (Luminex, n>7, 4h (FIG. 3)) was “increase of IL-2, IL-12p40/p70, and IL-6 protein secretion”. In the assay with BMDCs (Zymd 5 μg/ml, bLP 10 nM, Luminex, n>7, 4h (FIG. 3)), the “stimulatory effect on the expression of IL-6 (IL-6 level), BPI vs Zymd vs bLP” value is “comparable”. The “increase of IL-2 and IL12p40/p70 compared to Zymd and bLP” value in the assay on BMDCs (vs Zymd 5 μg/ml and bLP 10 nM, Luminex, n>7, 4h (FIG. 3)) was “significantly higher”. Besides, in assay [1], the “effect of BPI alone on PBMCs” value is on record as “minor effect”. The “TNFα secretion by dendritic cells” value in assay [2] was “secrete TNFα”.
